# Measurements published in publication doi:10.1101/2020.06.18.159822.
# Like-named read-outs stand apart in the source and are kept apart here.
# How the values were obtained:
# [1] = target: HIV-1 BH10 GagΔp6 (HIV-1 BH10); assay: native MS
# [2] = target: HIV-1 BH10 GagΔp6 (HIV-1 BH10); assay: native MS; remark: listed apart in the source
# [3] = target: WT HIV-1 BH10 Gag (HIV-1 BH10); assay: native MS
# [4] = target: WT HIV-1 BH10 Gag (HIV-1 BH10); assay: native MS; remark: listed apart in the source
# [5] = target: T1, WT Gag (HIV-1 BH10, UniProt P03347 1-512); assay: fluorescence anisotropy salt titration
# [6] = target: T1, WT Gag; assay: native MS
molecule,measurement,setting,value
HIV-1 BH10 GagΔp6 (domain or fragment),stoichiometry N,[1],2
same,stoichiometry N,[2],2
WT HIV-1 BH10 Gag (natural protein),stoichiometry N,[3],2
same,stoichiometry N,[4],2
Psi RNA-FTSC (structured_RNA) RNA: GGUCUCUCGACGCAGGACUCGGCUUGCUGGAGACGGCAAGAGGCGAGGGGCGGCGACUGGUGAGUACGCCAAAAAUUUUGACUAGCGGAGGCUAGAAGGAGAGA,Kd,[5],77 µM
TARpolyA RNA (structured_RNA) RNA: GGGUCUCUCUGGUUAGACCAGAUCUGAGCCUGGGAGCUCUCUGGCUAACUAGGGAACCCACUGCUUAAGCCUCAAUAAAGCUUGCCUUGAGUGCUCAAAGUAGUG,binding result,[6],binds
